In assay [1] the target is T1, recombinant human IL-6 (human, UniProt P05231 30-212).
T1 construct: Bought protein
Description: SPR Biacore, purified dual inhibitor on Protein A chip, IL-6 analyte, 37 C. (In general: In SPR one partner is held on a chip, and binding of the other changes the refractive index at the surface.)

The target of assay [2] is T1, recombinant human IL-6. Description: SPR Biacore, supernatant dual inhibitor on Protein A chip, IL-6 analyte, 25 C.

T1 sequence (P05231 30-212 limits assumed): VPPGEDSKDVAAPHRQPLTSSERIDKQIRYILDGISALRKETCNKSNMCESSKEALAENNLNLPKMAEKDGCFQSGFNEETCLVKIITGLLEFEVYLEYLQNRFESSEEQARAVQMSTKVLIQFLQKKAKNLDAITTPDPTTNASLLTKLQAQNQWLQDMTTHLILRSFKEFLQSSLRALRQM

B1: dual inhibitor molecule G (AntiIL-6-VEGF Trap) (other)
heavy: EVQLVESGGGLVQPGGSLRLSCAASGFTFSPFAISWVRQAPGKGLEWVAKISPGGSWTYYSDTVTDRFTFSLDTSKSTAYLQMNSLRAEDTAVYYCARQLWGYYALDVWGQGTLVTVSSASTKGPSVFPLAPSSKSTSGGTAALGCLVKDYFPEPVTVSWNSGALTSGVHTFPAVLQSSGLYSLSSVVTVPSSSLGTQTYICNVNHKPSNTKVDKKVEPKSCGGGGSGGGGSSDTGRPFVEMYSEIPEIIHMTEGRELVIPCRVTSPNITVTLKKFPLDTLIPDGKRIIWDSRKGFIISNATYKEIGLLTCEATVNGHLYKTNYLTHRQTNTIIDVVLSPSHGIELSVGEKLVLNCTARTELNVGIDFNWEYPSSKHQHKKLVNRDLKTQSGSEMKKFLSTLTIDGVTRSDQGLYTCAASSGLMTKKNSTFVRVHEKDKTHTCPPCPAPEAAGAPSVFLFPPKPKDTLMISRTPEVTCVVVDVSHEDPEVKFNWYVDGVEVHNAKTKPREEQYNSTYRVVSVLTVLHQDWLNGKEYKCKVSNKALPAPIEKTISKAKGQPREPQVYTLPPSREEMTKNQVSLTCLVKGFYPSDIAVEWESNGQPENNYKTTPPVLDSDGSFFLYSKLTVDKSRWQQGNVFSCSVMHEALHNHYTQKSLSCSPGK
light: DIQLTQSPSSLSASVGDRVTITCSASISVSYLYWYQQKPGKAPKLLIYDDSSLASGVPSRFSGSGSGTDFTLTISSLQPEDFATYYCQQWSGYPYTFGQGTKVEIKRTVAAPSVFIFPPSDEQLKSGTASVVCLLNNFYPREAKVQWKVDNALQSGNSQESVTEQDSKDSTYSLSSTLTLSKADYEKHKVYACEVTHQGLSSPVTKSFNRGEC
notes: Trap-antibody fusion, VEGF trap between the Fab region (VH variant I) and the Fc; light chain variant III
In the case of B1, in the assay with recombinant human IL-6 [1], the Kd – broadly, the concentration at which binding is half-saturated – worked out at 0.451 nM; the koff (in general, a measure of how fast the partners let go of each other) turned out to be 0.000567 s⁻¹; the kon (as a rule, the rate constant with which the complex forms) came out at 1.26e+06 M⁻¹ s⁻¹. In the assay with recombinant human IL-6 [2], the Kd came out at 0.589 nM, the koff is 0.000149 s⁻¹ and the kon stood at 252000 M⁻¹ s⁻¹.

B2: dual inhibitor molecule L (AntiIL-6-VEGF Trap) (other)
heavy: EVQLVESGGGLVQPGGSLRLSCAASGFTFSPFAWSWVRQAPGKGLEWVAKISPGGSWTYYSDTVTDRFTFSLDTSKSTAYLQMNSLRAEDTAVYYCARQLWGYYALDVWGQGTLVTVSSASTKGPSVFPLAPSSKSTSGGTAALGCLVKDYFPEPVTVSWNSGALTSGVHTFPAVLQSSGLYSLSSVVTVPSSSLGTQTYICNVNHKPSNTKVDKKVEPKSCGGGGSGGGGSSDTGRPFVEMYSEIPEIIHMTEGRELVIPCRVTSPNITVTLKKFPLDTLIPDGKRIIWDSRKGFIISNATYKEIGLLTCEATVNGHLYKTNYLTHRQTNTIIDVVLSPSHGIELSVGEKLVLNCTARTELNVGIDFNWEYPSSKHQHKKLVNRDLKTQSGSEMKKFLSTLTIDGVTRSDQGLYTCAASSGLMTKKNSTFVRVHEKDKTHTCPPCPAPEAAGAPSVFLFPPKPKDTLMISRTPEVTCVVVDVSHEDPEVKFNWYVDGVEVHNAKTKPREEQYNSTYRVVSVLTVLHQDWLNGKEYKCKVSNKALPAPIEKTISKAKGQPREPQVYTLPPSREEMTKNQVSLTCLVKGFYPSDIAVEWESNGQPENNYKTTPPVLDSDGSFFLYSKLTVDKSRWQQGNVFSCSVMHEALHNHYTQKSLSCSPGKPGK
light: DIQLTQSPSSLSASVGDRVTITCSASISVSYLYWYQQKPGKAPKLLIYDDSNLASGVPSRFSGSGSGTDFTLTISSLQPEDFATYYCQQWSGYPYTFGQGTKVEIKRTVAAPSVFIFPPSDEQLKSGTASVVCLLNNFYPREAKVQWKVDNALQSGNSQESVTEQDSKDSTYSLSSTLTLSKADYEKHKVYACEVTHQGLSSPVTKSFNRGEC
notes: Trap-antibody fusion, VEGF trap between the Fab region (VH variant II) and the Fc; light chain variant V
As for B2, in the assay with recombinant human IL-6 [1], the Kd is 0.436 nM, the koff was 0.00065 s⁻¹ and the kon amounted to 1.49e+06 M⁻¹ s⁻¹. Moreover, in the assay with recombinant human IL-6 [2], the Kd was 0.239 nM, the koff worked out at 0.000169 s⁻¹ and the kon was determined as 705000 M⁻¹ s⁻¹.

B3: dual inhibitor molecule J (AntiIL-6-VEGF Trap) (other)
heavy: EVQLVESGGGLVQPGGSLRLSCAASGFTFSPFAWSWVRQAPGKGLEWVAKISPGGSWTYYSDTVTDRFTFSLDTSKSTAYLQMNSLRAEDTAVYYCARQLWGYYALDVWGQGTLVTVSSASTKGPSVFPLAPSSKSTSGGTAALGCLVKDYFPEPVTVSWNSGALTSGVHTFPAVLQSSGLYSLSSVVTVPSSSLGTQTYICNVNHKPSNTKVDKKVEPKSCGGGGSGGGGSSDTGRPFVEMYSEIPEIIHMTEGRELVIPCRVTSPNITVTLKKFPLDTLIPDGKRIIWDSRKGFIISNATYKEIGLLTCEATVNGHLYKTNYLTHRQTNTIIDVVLSPSHGIELSVGEKLVLNCTARTELNVGIDFNWEYPSSKHQHKKLVNRDLKTQSGSEMKKFLSTLTIDGVTRSDQGLYTCAASSGLMTKKNSTFVRVHEKDKTHTCPPCPAPEAAGAPSVFLFPPKPKDTLMISRTPEVTCVVVDVSHEDPEVKFNWYVDGVEVHNAKTKPREEQYNSTYRVVSVLTVLHQDWLNGKEYKCKVSNKALPAPIEKTISKAKGQPREPQVYTLPPSREEMTKNQVSLTCLVKGFYPSDIAVEWESNGQPENNYKTTPPVLDSDGSFFLYSKLTVDKSRWQQGNVFSCSVMHEALHNHYTQKSLSCSPGK
light: DIQLTQSPSSLSASVGDRVTITCSASISVSYLYWYQQKPGKAPKLLIYDDSSLASGVPSRFSGSGSGTDFTLTISSLQPEDFATYYCQQWSGYPYTFGQGTKVEIKRTVAAPSVFIFPPSDEQLKSGTASVVCLLNNFYPREAKVQWKVDNALQSGNSQESVTEQDSKDSTYSLSSTLTLSKADYEKHKVYACEVTHQGLSSPVTKSFNRGEC
notes: Trap-antibody fusion, VEGF trap between the Fab region (VH variant II) and the Fc; light chain variant III
Consider B3, for which, in the assay with recombinant human IL-6 [1], the Kd came to 0.468 nM, the koff turned out to be 0.000664 s⁻¹ and the kon stood at 1.42e+06 M⁻¹ s⁻¹. Moreover, in the assay with recombinant human IL-6 [2], the dissociation constant Kd came to 0.28 nM, the koff turned out to be 0.000149 s⁻¹ and the kon was 534000 M⁻¹ s⁻¹.

B4: dual inhibitor molecule K (AntiIL-6-VEGF Trap) (other)
heavy: EVQLVESGGGLVQPGGSLRLSCAASGFTFSPFAWSWVRQAPGKGLEWVAKISPGGSWTYYSDTVTDRFTFSLDTSKSTAYLQMNSLRAEDTAVYYCARQLWGYYALDVWGQGTLVTVSSASTKGPSVFPLAPSSKSTSGGTAALGCLVKDYFPEPVTVSWNSGALTSGVHTFPAVLQSSGLYSLSSVVTVPSSSLGTQTYICNVNHKPSNTKVDKKVEPKSCGGGGSGGGGSSDTGRPFVEMYSEIPEIIHMTEGRELVIPCRVTSPNITVTLKKFPLDTLIPDGKRIIWDSRKGFIISNATYKEIGLLTCEATVNGHLYKTNYLTHRQTNTIIDVVLSPSHGIELSVGEKLVLNCTARTELNVGIDFNWEYPSSKHQHKKLVNRDLKTQSGSEMKKFLSTLTIDGVTRSDQGLYTCAASSGLMTKKNSTFVRVHEKDKTHTCPPCPAPEAAGAPSVFLFPPKPKDTLMISRTPEVTCVVVDVSHEDPEVKFNWYVDGVEVHNAKTKPREEQYNSTYRVVSVLTVLHQDWLNGKEYKCKVSNKALPAPIEKTISKAKGQPREPQVYTLPPSREEMTKNQVSLTCLVKGFYPSDIAVEWESNGQPENNYKTTPPVLDSDGSFFLYSKLTVDKSRWQQGNVFSCSVMHEALHNHYTQKSLSCSPGK
light: DIQLTQSPSSLSASVGDRVTITCSASISVSYLYWYQQKPGKAPKLLIYDASSLASGVPSRFSGSGSGTDFTLTISSLQPEDFATYYCQQWSGYPYTFGQGTKVEIKRTVAAPSVFIFPPSDEQLKSGTASVVCLLNNFYPREAKVQWKVDNALQSGNSQESVTEQDSKDSTYSLSSTLTLSKADYEKHKVYACEVTHQGLSSPVTKSFNRGEC
notes: Trap-antibody fusion, VEGF trap between the Fab region (VH variant II) and the Fc; light chain variant IV
Consider B4, for which, in the assay with recombinant human IL-6 [1], the Kd came out at 0.452 nM, the koff stood at 0.000579 s⁻¹ and the kon is 1.28e+06 M⁻¹ s⁻¹. Besides, in the assay with recombinant human IL-6 [2], the Kd came out at 0.282 nM, the koff was found to be 0.000178 s⁻¹ and the kon worked out at 629000 M⁻¹ s⁻¹.

B5: dual inhibitor molecule I (AntiIL-6-VEGF Trap) (other)
heavy: EVQLVESGGGLVQPGGSLRLSCAASGFTFSPFAISWVRQAPGKGLEWVAKISPGGSWTYYSDTVTDRFTFSLDTSKSTAYLQMNSLRAEDTAVYYCARQLWGYYALDVWGQGTLVTVSSASTKGPSVFPLAPSSKSTSGGTAALGCLVKDYFPEPVTVSWNSGALTSGVHTFPAVLQSSGLYSLSSVVTVPSSSLGTQTYICNVNHKPSNTKVDKKVEPKSCGGGGSGGGGSSDTGRPFVEMYSEIPEIIHMTEGRELVIPCRVTSPNITVTLKKFPLDTLIPDGKRIIWDSRKGFIISNATYKEIGLLTCEATVNGHLYKTNYLTHRQTNTIIDVVLSPSHGIELSVGEKLVLNCTARTELNVGIDFNWEYPSSKHQHKKLVNRDLKTQSGSEMKKFLSTLTIDGVTRSDQGLYTCAASSGLMTKKNSTFVRVHEKDKTHTCPPCPAPEAAGAPSVFLFPPKPKDTLMISRTPEVTCVVVDVSHEDPEVKFNWYVDGVEVHNAKTKPREEQYNSTYRVVSVLTVLHQDWLNGKEYKCKVSNKALPAPIEKTISKAKGQPREPQVYTLPPSREEMTKNQVSLTCLVKGFYPSDIAVEWESNGQPENNYKTTPPVLDSDGSFFLYSKLTVDKSRWQQGNVFSCSVMHEALHNHYTQKSLSCSPGK
light: DIQLTQSPSSLSASVGDRVTITCSASISVSYLYWYQQKPGKAPKLLIYDDSNLASGVPSRFSGSGSGTDFTLTISSLQPEDFATYYCQQWSGYPYTFGQGTKVEIKRTVAAPSVFIFPPSDEQLKSGTASVVCLLNNFYPREAKVQWKVDNALQSGNSQESVTEQDSKDSTYSLSSTLTLSKADYEKHKVYACEVTHQGLSSPVTKSFNRGEC
notes: Trap-antibody fusion, VEGF trap between the Fab region (VH variant I) and the Fc; light chain variant V
As for B5, in the assay with recombinant human IL-6 [1], the Kd was determined as 0.435 nM, the koff worked out at 0.000499 s⁻¹ and the on-rate constant (kon) is 1.15e+06 M⁻¹ s⁻¹. Further, in the assay with recombinant human IL-6 [2], the Kd amounted to 0.679 nM, the koff turned out to be 0.000147 s⁻¹ and the kon came to 217000 M⁻¹ s⁻¹.

B6: dual inhibitor molecule H (AntiIL-6-VEGF Trap) (other)
heavy: EVQLVESGGGLVQPGGSLRLSCAASGFTFSPFAISWVRQAPGKGLEWVAKISPGGSWTYYSDTVTDRFTFSLDTSKSTAYLQMNSLRAEDTAVYYCARQLWGYYALDVWGQGTLVTVSSASTKGPSVFPLAPSSKSTSGGTAALGCLVKDYFPEPVTVSWNSGALTSGVHTFPAVLQSSGLYSLSSVVTVPSSSLGTQTYICNVNHKPSNTKVDKKVEPKSCGGGGSGGGGSSDTGRPFVEMYSEIPEIIHMTEGRELVIPCRVTSPNITVTLKKFPLDTLIPDGKRIIWDSRKGFIISNATYKEIGLLTCEATVNGHLYKTNYLTHRQTNTIIDVVLSPSHGIELSVGEKLVLNCTARTELNVGIDFNWEYPSSKHQHKKLVNRDLKTQSGSEMKKFLSTLTIDGVTRSDQGLYTCAASSGLMTKKNSTFVRVHEKDKTHTCPPCPAPEAAGAPSVFLFPPKPKDTLMISRTPEVTCVVVDVSHEDPEVKFNWYVDGVEVHNAKTKPREEQYNSTYRVVSVLTVLHQDWLNGKEYKCKVSNKALPAPIEKTISKAKGQPREPQVYTLPPSREEMTKNQVSLTCLVKGFYPSDIAVEWESNGQPENNYKTTPPVLDSDGSFFLYSKLTVDKSRWQQGNVFSCSVMHEALHNHYTQKSLSCSPGK
light: DIQLTQSPSSLSASVGDRVTITCSASISVSYLYWYQQKPGKAPKLLIYDASSLASGVPSRFSGSGSGTDFTLTISSLQPEDFATYYCQQWSGYPYTFGQGTKVEIKRTVAAPSVFIFPPSDEQLKSGTASVVCLLNNFYPREAKVQWKVDNALQSGNSQESVTEQDSKDSTYSLSSTLTLSKADYEKHKVYACEVTHQGLSSPVTKSFNRGEC
notes: Trap-antibody fusion, VEGF trap between the Fab region (VH variant I) and the Fc; light chain variant IV
Turning to B6, in the assay with recombinant human IL-6 [1], the Kd worked out at 0.396 nM, the koff is 0.000529 s⁻¹ and the kon was 1.34e+06 M⁻¹ s⁻¹. For the same molecule, in the assay with recombinant human IL-6 [2], the equilibrium dissociation constant (Kd) was 0.356 nM, the koff was 0.000162 s⁻¹ and the kon worked out at 454000 M⁻¹ s⁻¹.

The values are drawn from US20240209076A1 (KODIAK SCIENCES, published 2024).
